Measured values published in US20240002464A1 (published 2024).
Where a chain is given by its changes, count along the chain named.

T1: HPV16 E6 peptide on HLA-A*02:01 (human)
T1 peptide: TIHDIILECV

B1: TCR1 (TCR, V domains shown)
Valpha: AQKVTQAQTEISVVEKEDVTLDCVYETRDTTYYLFWYKQPPSGELVFLIRRNSFDEQNEISGRYSWNFQKSTSSFNFTITASQVVDSAVYFCALRAGANNLFFGTGTRLTVIP
Vbeta: NAGVTQTPKFQVLKTGQSMTLQCAQDMNHNSMYWYRQDPGMGLRLIYYSASEGTTDKGEVPNGYNVSRLNKREFSLRLESAAPSQTSVYFCASGPWGSSGNTIYFGEGSWLTVV
B2: TCR4 (TCR, V domains shown)
Valpha: B1 Valpha with N99W, N100P, L101M, F102K
Vbeta: B1 Vbeta
B3: TCR3 (TCR, V domains shown)
Valpha: B1 Valpha with N100T, L101P, F102I
Vbeta: B1 Vbeta
B4: TCR2 (TCR, V domains shown)
Valpha: B1 Valpha with N100L, L101P, F102V
Vbeta: B1 Vbeta

Molecular target: T1, HPV16 E6 peptide on HLA-A*02:01
Experiment: Kd or kinetics
Experimental: In this example, the binding activity of the soluble TCR molecule obtained according to Example 2 to the […]-HLA A0201 complex was tested using a BIAcore T200 real-time analysis system. The […]-HLA A0201 complex was prepared by methods well known to those skilled in the art, mainly including purification, renaturation, repurification, and biotinylation. The anti-streptavidin antibody (GenScript) was added to the coupling buffer (10 mM sodium acetate buffer, pH 4.77), and then the antibody was passed through a CMS chip previously activated with EDC and NHS so that the antibody was immobilized on the chip surface, and finally the unreacted activated surface was blocked with a solution of ethanolamine in hydrochloric acid to complete the coupling. The coupling was at a level of about 15,000 RU. A low concentration of streptavidin was allowed to flow through the surface of the chip coated with the antibody, then the […]-HLA A0201 complex was allowed to flow through a detection channel, with the other channel serving as a reference channel. Then 0.05 mM of biotin was allowed to flow through the chip at a flow rate of 10 μL/min for 2 minutes, blocking the remaining binding site for streptavidin.
The kinetic parameters were calculated using the BIAcore Evaluation software to obtain the binding kinetic profiles of the soluble TCR molecules of the present disclosure binding to the […]-HLA A0201 complex, respectively, as shown in FIGS. 7a-7d. […] Also, the binding activity of the soluble TCR molecule of the present disclosure to several complexes of other unrelated antigen short peptides and HLA was also tested by the method.

Binder	binding result
B1	recognises
B2	recognises
B3	recognises
B4	recognises
